Laboratory results from patent CN113912720A (BLOOD DISEASES HOSPITAL CHINESE ACADEMY OF MEDICAL SCIENCES …, dated 2022).

Biological target: T1, 人BCMA蛋白 (on 3T3-BCMA cells) (human, UniProt Q02223 1-54)
T1 construct: extracellular domain; also called 3T3-BCMA细胞表面BCMA蛋白; CD269
T1 sequence (looked up): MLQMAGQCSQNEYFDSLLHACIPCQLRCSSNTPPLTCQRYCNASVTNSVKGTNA
Assay: Flow cytometry: PE-labelled 69G8 titrated from 400 nM to 0.025 nM on 3T3-BCMA cells; mean fluorescence fitted with GraphPad Prism 7

Kd: 13.8 nM
B1: 抗人BCMA单克隆抗体69G8 (antibody, V domains shown)
VH: QVQLQQSGAEVVRPGTSVKVSCKASGYAFTNYLIEWVKQRPGQGPEWIGVITPGRGDTKYNAKFAGKATLTADKSSSTAYMQLSSLTFDDSAVYFCARGTTAWFPYWGQGTLVTVSA
VL: DIVLTQSPASLTVSLGQRATISCRASKSVSTSGYSYMHWYQQKPRQPPKLLIYLASNLESGVPARFSGSGSGTDFTLNIHPVEEEDAATYYCQHSRDLPYTFGGGTKLEIKR
notes: also called 69G8抗体; PE标记抗体69G8
